Assays:
Assay in all cases: phage ELISA
[1] = target: T1, human LTβR extracellular domain fused with an Fc fragment at the C-terminus (human, UniProt P36941 31-227)
T1 construct: extracellular domain; Bought; also called hLTβR; not shown: Fc fragment at the C-terminus
Description: (§1) Individual clones from the fourth selection round were grown in 96-well deep well blocks in 100 μl of 2YT broth supplemented with 50 μg/ml ampicillin at 37° C. and 220 rpm for 5 hours. Then, 5 μl of helper phages were added to each well and incubated at 37° C. for 30 minutes. After centrifuging at 3,000 rpm for 10 minutes, the cells were resuspended and grown overnight in 150 μl/well of 2YT broth supplemented with 50 μg/ml ampicillin and 50 μg/ml kanamycin.
(§2) For the ELISA screening, 96-well ELISA plates were coated with target proteins (1 μg/ml in PBS) at 4° C. overnight and then blocked with 2% BSA for 2 hours at room temperature. The supernatant containing phage particles was added to the plates and incubated at room temperature for 1 hour. After incubation, the plates were washed five times with PBST. HRP (horseradish peroxidase) conjugated anti-M13 antibody (Sino Biological, China) was added to the wells and incubated at room temperature for 1 hour. Following another round of washing five times with PBST, 50 μl of TMB (3,3′, 5,5″-tetramethylbenzidine, #34029, ThemoFisher) was added to each well. After 5 minutes, the reaction was stopped by adding 50 μl stop solution (#C1058, Solarbio, China). The absorbance at 450 nm (OD450) was measured using a plate reader (SpectraMax M5, Molecule Devices). Wells coated with BSA were used as negative controls. Phage clones with an ELISA score ratio (target/BSA)>3 were considered positive clones.

[2] = target: T2, mouse LTβR extracellular domain fused with an Fc fragment at the C-terminus (mouse, UniProt P50284 31-223)
T2 construct: extracellular domain; Bought; also called mLTβR; not shown: Fc fragment at the C-terminus
T2 sequence (P50284 31-223): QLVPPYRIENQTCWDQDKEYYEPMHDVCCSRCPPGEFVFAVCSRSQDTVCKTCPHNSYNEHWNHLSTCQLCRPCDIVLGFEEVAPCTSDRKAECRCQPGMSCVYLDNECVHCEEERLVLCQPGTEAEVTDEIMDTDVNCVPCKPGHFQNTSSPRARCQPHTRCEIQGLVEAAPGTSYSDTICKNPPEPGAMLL
Description: as §1, §2

[3] = target: T3, human HVEM extracellular domain fused with an Fc fragment at the C-terminus (human, UniProt Q92956 39-202)
T3 construct: extracellular domain; Bought; also called hHVEM; not shown: Fc fragment at the C-terminus
T3 sequence (looked up): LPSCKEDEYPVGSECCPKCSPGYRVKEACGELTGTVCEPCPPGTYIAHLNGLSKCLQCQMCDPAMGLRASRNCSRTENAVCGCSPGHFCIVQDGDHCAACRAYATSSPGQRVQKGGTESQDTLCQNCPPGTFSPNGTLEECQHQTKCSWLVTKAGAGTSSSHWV
Description: as §1, §2

Measured: binding result

T1 sequence (P36941 31-227): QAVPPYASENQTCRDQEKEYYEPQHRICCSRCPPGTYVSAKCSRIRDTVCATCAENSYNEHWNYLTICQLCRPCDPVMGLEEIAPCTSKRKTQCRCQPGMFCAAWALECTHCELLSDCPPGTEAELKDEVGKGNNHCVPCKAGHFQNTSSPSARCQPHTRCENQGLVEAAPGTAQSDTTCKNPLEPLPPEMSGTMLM

B1: LIGHT-53 (ligand)
chain: DGPAGSWEQLIQERRSHEVNPAAHLTGANSSLTGSGGPLLWETNLGLAFLRGLSYHDGALVVTKAGYYYIYSKVQLGGVGCPLGLASTITHGLYKRTPRYPEELELLVSQQSPCGRATSSSRVWWDSSFLGGVVHLEAGEKVVVRVSDERLVRTRDGTRSYFGAFMV
notes: Printed mutations: Q117N, L220S, L227T; Soluble protein carries an N-terminal His tag
binds: [1] | [2] | [3]

B2: LIGHT-54 (ligand)
chain: DGPAGSWEQLIQERRSHEVNPAAHLTGANSSLTGSGGPLLWETELGLAFLRGLSYHDGALVVTKAGYYYIYSKVQLGGVGCPLGLASTITHGLYKRTPRYPEELELLVSQQSPCGRATSSSRVWWDSSFLGGVVHLEAGEKVVVRVSDERLVRTRDGTRSYFGAFMV
notes: Printed mutations: Q117E, L220S, L227T; Soluble protein carries an N-terminal His tag
binds: [1] | [2] | [3]

B3: LIGHT-69 (ligand)
chain: DGPAGSWEQLIQERRSHEVNPAAHLTGANSSLTGSGGPLLWETQLGLAFLRGLSYHDGALVVTKAGYYYIYSKVQLGGVGCPLGLAGPITHGLYKRTPRYPEELELLVSQQSPCGRATSSSRVWWDSSFLGGVVHLEAGEKVVVRVSDERLVRTRDGTRSYFGAFMV
notes: Printed mutations: S160G, T161P, L220S, L227T; Soluble protein carries an N-terminal His tag
binds: [1] | [2] | [3]

B4: LIGHT-68 (ligand)
chain: DGPAGSWEQLIQERRSHEVNPAAHLTGANSSLTGSGGPLLWETQLGLAFLRGLSYHDGALVVTKAGYYYIYSKVQLGGVGCPLGLAGGITHGLYKRTPRYPEELELLVSQQSPCGRATSSSRVWWDSSFLGGVVHLEAGEKVVVRVSDERLVRTRDGTRSYFGAFMV
notes: Printed mutations: S160G, T161G, L220S, L227T; Soluble protein carries an N-terminal His tag
binds: [1] | [2] | [3]

B5: LIGHT-73 (ligand)
chain: DGPAGSWEQLIQERRSHEVNPAAHLTGANSSLTGSGGPLLWETELGLAFLRGLSYHDGALVVTKAGYYYIYSKVQLGGVGCPLGLASGITHGLYKRTPRYPEELELLVSQQSPCGRATSSSRVWWDSSFLGGVVHLEAGEKVVVRVSDERLVRTRDGTRSYFGAFMV
notes: Printed mutations: Q117E, T161G, L220S, L227T; Soluble protein carries an N-terminal His tag
binds: [1] | [2] | [3]

B6: LIGHT-56 (ligand)
chain: DGPAGSWEQLIQERRSHEVNPAAHLTGANSSLTGSGGPLLWETELGLAFLRGLSYHDGALVVTKAGYYYIYSKVQLGGVGCPLGLASTITHGLYKRTPRYPEELELLVSQQSPCGRATSSSRVWWDSSFLGGVVHLEAGEKVVVRVTDERLVRTRDGTRSYFGAFMV
notes: Printed mutations: Q117E, L220T, L227T; Soluble protein carries an N-terminal His tag
binds: [1] | [2] | [3]

B7: LIGHT-67 (ligand)
chain: DGPAGSWEQLIQERRSHEVNPAAHLTGANSSLTGSGGPLLWETQLGLAFLRGLSYHDGALVVTKAGYYYIYSKVQLGGVGCPLGLASSITHGLYKRTPRYPEELELLVSQQSPCGRATSSSRVWWDSSFLGGVVHLEAGEKVVVRVSDERLVRTRDGTRSYFGAFMV
notes: Printed mutations: T161S, L220S, L227T; Soluble protein carries an N-terminal His tag
binds: [1] | [2] | [3]

B8: LIGHT-62 (ligand)
chain: DGPAGSWEQLIQERRSHEVNPAAHLTGANSSLTGSGGPLLWETQLGLAFLRGLSYHDGALVVTKAGYYYIYSKVQLGGVGCPLGLAGGITHGLYKRTPRYPEELELLVSQQSPCGRATSSSRVWWDSSFLGGVVHLEAGEKVVVRVTDERLVRLRDGTRSYFGAFMV
notes: Printed mutations: S160G, T161G, L220T; Soluble protein carries an N-terminal His tag
binds: [1] | [2] | [3]

B9: LIGHT-65 (ligand)
chain: DGPAGSWEQLIQERRSHEVNPAAHLTGANSSLTGSGGPLLWETQLGLAFLRGLSYHDGALVVTKAGYYYIYSKVQLGGVGCPLGLAGTITHGLYKRTPRYPEELELLVSQQSPCGRATSSSRVWWDSSFLGGVVHLEAGEKVVVRVSDERLVRTRDGTRSYFGAFMV
notes: Printed mutations: S160G, L220S, L227T; Soluble protein carries an N-terminal His tag
binds: [1] | [2] | [3]

B10: LIGHT-59 (ligand)
chain: DGPAGSWEQLIQERRSHEVNPAAHLTGANSSLTGSGGPLLWETQLGLAFLRGLSYHDGALVVTKAGYYYIYSKVQLGGVGCPLGLAGPITHGLYKRTPRYPEELELLVSQQSPCGRATSSSRVWWDSSFLGGVVHLEAGEKVVVRVSDERLVRLRDGTRSYFGAFMV
notes: Printed mutations: S160G, T161P, L220S; Soluble protein carries an N-terminal His tag
binds: [1] | [2] | [3]

B11: LIGHT-72 (ligand)
chain: DGPAGSWEQLIQERRSHEVNPAAHLTGANSSLTGSGGPLLWETNLGLAFLRGLSYHDGALVVTKAGYYYIYSKVQLGGVGCPLGLAGTITHGLYKRTPRYPEELELLVSQQSPCGRATSSSRVWWDSSFLGGVVHLEAGEKVVVRVSDERLVRTRDGTRSYFGAFMV
notes: Printed mutations: Q117N, S160G, L220S, L227T; Soluble protein carries an N-terminal His tag
binds: [1] | [2] | [3]

B12: LIGHT-55 (ligand)
chain: DGPAGSWEQLIQERRSHEVNPAAHLTGANSSLTGSGGPLLWETNLGLAFLRGLSYHDGALVVTKAGYYYIYSKVQLGGVGCPLGLASTITHGLYKRTPRYPEELELLVSQQSPCGRATSSSRVWWDSSFLGGVVHLEAGEKVVVRVTDERLVRTRDGTRSYFGAFMV
notes: Printed mutations: Q117N, L220T, L227T; Soluble protein carries an N-terminal His tag
binds: [1] | [2] | [3]

B13: LIGHT-71 (ligand)
chain: DGPAGSWEQLIQERRSHEVNPAAHLTGANSSLTGSGGPLLWETNLGLAFLRGLSYHDGALVVTKAGYYYIYSKVQLGGVGCPLGLASPITHGLYKRTPRYPEELELLVSQQSPCGRATSSSRVWWDSSFLGGVVHLEAGEKVVVRVSDERLVRTRDGTRSYFGAFMV
notes: Printed mutations: Q117N, T161P, L220S, L227T; Soluble protein carries an N-terminal His tag
binds: [1] | [2] | [3]

B14: LIGHT-63 (ligand)
chain: DGPAGSWEQLIQERRSHEVNPAAHLTGANSSLTGSGGPLLWETQLGLAFLRGLSYHDGALVVTKAGYYYIYSKVQLGGVGCPLGLASGITHGLYKRTPRYPEELELLVSQQSPCGRATSSSRVWWDSSFLGGVVHLEAGEKVVVRVSDERLVRTRDGTRSYFGAFMV
notes: Printed mutations: T161G, L220S, L227T; Soluble protein carries an N-terminal His tag
binds: [1] | [2] | [3]

B15: LIGHT-57 (ligand)
chain: DGPAGSWEQLIQERRSHEVNPAAHLTGANSSLTGSGGPLLWETQLGLAFLRGLSYHDGALVVTKAGYYYIYSKVQLGGVGCPLGLASTITHGLYKRTPRYPEELELLVSQQSPCGRATSSSRVWWDSSFLGGVVHLEAGEKVVVRVSDERLVRTRDGTRSYFGAFMV
notes: Printed mutations: L220S, L227T; Soluble protein carries an N-terminal His tag
binds: [1] | [2] | [3]

B16: LIGHT-70 (ligand)
chain: DGPAGSWEQLIQERRSHEVNPAAHLTGANSSLTGSGGPLLWETNLGLAFLRGLSYHDGALVVTKAGYYYIYSKVQLGGVGCPLGLASGITHGLYKRTPRYPEELELLVSQQSPCGRATSSSRVWWDSSFLGGVVHLEAGEKVVVRVSDERLVRTRDGTRSYFGAFMV
notes: Printed mutations: Q117N, T161G, L220S, L227T; Soluble protein carries an N-terminal His tag
binds: [1] | [2] | [3]

B17: LIGHT-66 (ligand)
chain: DGPAGSWEQLIQERRSHEVNPAAHLTGANSSLTGSGGPLLWETQLGLAFLRGLSYHDGALVVTKAGYYYIYSKVQLGGVGCPLGLAGTITHGLYKRTPRYPEELELLVSQQSPCGRATSSSRVWWDSSFLGGVVHLEAGEKVVVRVTDERLVRTRDGTRSYFGAFMV
notes: Printed mutations: S160G, L220T, L227T; Soluble protein carries an N-terminal His tag
binds: [1] | [2] | [3]

B18: LIGHT-64 (ligand)
chain: DGPAGSWEQLIQERRSHEVNPAAHLTGANSSLTGSGGPLLWETQLGLAFLRGLSYHDGALVVTKAGYYYIYSKVQLGGVGCPLGLASPITHGLYKRTPRYPEELELLVSQQSPCGRATSSSRVWWDSSFLGGVVHLEAGEKVVVRVSDERLVRTRDGTRSYFGAFMV
notes: Printed mutations: T161P, L220S, L227T; Soluble protein carries an N-terminal His tag
binds: [1] | [2] | [3]

From patent publication US20250361288A1 (Gilead, published 2025)
